Results: patent US20250145690A1 (US Dept. of Health and Human Services, published 2025)
Substitutions are numbered along the chain they refer to.

Tests used:
Assay in all cases: bead flow cytometry, AUC minus CD4
[1] = target: T1, HCoV-229E spike protein (Sino Biological 40605-V08B) (HCoV-229E, UniProt P15423 16-1115)
T1 sequence: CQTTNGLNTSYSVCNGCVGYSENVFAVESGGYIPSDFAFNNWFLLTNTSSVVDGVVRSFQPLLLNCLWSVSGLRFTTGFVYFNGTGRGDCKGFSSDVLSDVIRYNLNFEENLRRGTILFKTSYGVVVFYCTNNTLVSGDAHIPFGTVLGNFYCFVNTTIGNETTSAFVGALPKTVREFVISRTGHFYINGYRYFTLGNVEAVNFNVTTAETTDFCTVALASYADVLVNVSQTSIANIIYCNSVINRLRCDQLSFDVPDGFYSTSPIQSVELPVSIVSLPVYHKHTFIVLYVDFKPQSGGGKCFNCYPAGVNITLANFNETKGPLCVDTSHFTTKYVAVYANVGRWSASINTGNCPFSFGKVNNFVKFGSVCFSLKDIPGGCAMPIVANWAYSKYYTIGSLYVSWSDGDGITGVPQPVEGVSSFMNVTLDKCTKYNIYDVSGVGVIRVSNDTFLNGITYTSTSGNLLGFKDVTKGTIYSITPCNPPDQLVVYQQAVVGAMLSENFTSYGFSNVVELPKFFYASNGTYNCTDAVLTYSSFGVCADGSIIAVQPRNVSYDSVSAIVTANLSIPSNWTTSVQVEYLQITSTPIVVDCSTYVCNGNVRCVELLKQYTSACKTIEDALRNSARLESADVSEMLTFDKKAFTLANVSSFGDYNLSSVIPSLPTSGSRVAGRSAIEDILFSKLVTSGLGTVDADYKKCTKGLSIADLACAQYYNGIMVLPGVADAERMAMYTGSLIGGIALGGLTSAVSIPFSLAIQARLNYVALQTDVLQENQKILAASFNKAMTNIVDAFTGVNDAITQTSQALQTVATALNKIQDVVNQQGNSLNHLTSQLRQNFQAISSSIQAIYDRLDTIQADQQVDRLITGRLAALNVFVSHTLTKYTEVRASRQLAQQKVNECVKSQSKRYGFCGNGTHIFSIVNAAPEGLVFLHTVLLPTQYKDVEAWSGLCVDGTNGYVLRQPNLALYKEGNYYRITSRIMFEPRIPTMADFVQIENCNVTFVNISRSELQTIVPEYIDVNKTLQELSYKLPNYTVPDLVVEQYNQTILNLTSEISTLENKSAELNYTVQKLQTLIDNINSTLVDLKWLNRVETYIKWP

[2] = target: T2, HCoV-NL63 spike protein (Sino Biological 40604-V08B) (HCoV-NL63, UniProt Q6Q1S2 19-1296)
T2 sequence: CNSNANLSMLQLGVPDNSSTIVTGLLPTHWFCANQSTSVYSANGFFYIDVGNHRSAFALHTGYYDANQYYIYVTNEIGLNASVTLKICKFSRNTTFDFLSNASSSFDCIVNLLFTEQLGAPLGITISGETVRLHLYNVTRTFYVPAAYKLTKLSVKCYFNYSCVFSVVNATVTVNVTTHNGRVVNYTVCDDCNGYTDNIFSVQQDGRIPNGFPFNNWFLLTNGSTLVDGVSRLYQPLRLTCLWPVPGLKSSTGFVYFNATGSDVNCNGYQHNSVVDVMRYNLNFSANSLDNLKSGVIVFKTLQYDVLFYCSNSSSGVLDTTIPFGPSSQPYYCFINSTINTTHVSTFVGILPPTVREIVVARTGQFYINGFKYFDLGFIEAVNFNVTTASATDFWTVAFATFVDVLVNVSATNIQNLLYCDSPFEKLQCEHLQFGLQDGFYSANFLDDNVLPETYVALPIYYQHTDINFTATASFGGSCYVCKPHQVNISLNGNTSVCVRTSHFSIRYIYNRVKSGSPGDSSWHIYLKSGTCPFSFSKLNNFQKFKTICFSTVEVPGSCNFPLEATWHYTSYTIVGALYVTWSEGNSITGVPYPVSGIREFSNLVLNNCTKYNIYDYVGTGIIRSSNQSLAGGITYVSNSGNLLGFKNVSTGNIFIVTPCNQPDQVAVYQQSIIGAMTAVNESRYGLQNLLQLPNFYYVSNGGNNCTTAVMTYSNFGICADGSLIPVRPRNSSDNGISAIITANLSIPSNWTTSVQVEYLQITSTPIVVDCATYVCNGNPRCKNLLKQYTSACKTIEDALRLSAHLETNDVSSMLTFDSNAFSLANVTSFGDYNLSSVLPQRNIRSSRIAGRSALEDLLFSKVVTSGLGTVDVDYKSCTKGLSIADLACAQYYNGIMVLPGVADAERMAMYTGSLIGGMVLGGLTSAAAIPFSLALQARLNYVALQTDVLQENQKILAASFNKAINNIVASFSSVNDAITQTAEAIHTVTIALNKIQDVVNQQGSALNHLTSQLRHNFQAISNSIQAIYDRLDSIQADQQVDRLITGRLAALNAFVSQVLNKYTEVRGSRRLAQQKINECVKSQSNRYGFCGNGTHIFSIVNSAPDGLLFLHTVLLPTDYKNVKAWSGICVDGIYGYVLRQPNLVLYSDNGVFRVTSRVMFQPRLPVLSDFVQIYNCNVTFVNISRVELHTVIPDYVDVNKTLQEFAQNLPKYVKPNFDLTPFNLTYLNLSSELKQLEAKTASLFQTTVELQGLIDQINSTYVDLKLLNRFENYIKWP

[3] = target: SARS-CoV-2 spike receptor binding domain (RBD), recombinant (SARS-CoV-2, UniProt P0DTC2 319-541)
[4] = target: SARS-CoV-2 spike N-terminal domain (NTD), recombinant (SARS-CoV-2, UniProt P0DTC2 14-305)

Measured: binding result

B1: COV57-19 (antibody, V domains shown)
VH: QVQLQESGPGLVKPSGTLSLTCAVSGDSISSSNWWSWVRQPPGKGLEWIGEIYQSGTTNNNPSLKSRVTISIDKSKNQFSLNLTSVTAADTAVYYCARAPLVFRSYGMDVWGQGTTVTVSS
VL: DIQMTQSPSSLSASVGDRVTITCRASQTIRTYLNWYQQKPGKAPKLLIYDASNLQSGVPSRFSGSGSGTDFTLTISSLEPEDFATYYCQQSYITPPWTFGQGTKVEIK
no binding (tested: 200 µg/mL): [1] | [2] | [3] | [4]

B2: COV57-05 (antibody, V domains shown)
VH: B1 VH with Q5L, A23D, P41S
VL: B1 VL with K104R
no binding (tested: 200 µg/mL): [1] | [2] | [3] | [4]

B3: COV77-35 (antibody, V domains shown)
VH: QMQLQESGPGLVKPSQTLSLTCAVSGGSISSDGYYWNWVRQHPGKGLELIAYIYYNGRPYYNPSLRSRVNISLDTSMNQFSLRVKSLTAADTAVYYCARGRLGYCAAGSCFLDSFDYWGQGALVTVSS
VL: EIVMTQYPATLSVSPGETATLSCRASESISRNLAWYQQKPGQAPRLLIYGASTRATGIPARFSGSGSGTEFALTISSLQAEDFAVYSCQQYHNWLLTFGGGTKVEIK
no binding (tested: 200 µg/mL): [1] | [2] | [3] | [4]

B4: COV77-14 (antibody, V domains shown)
VH: QVQLQESGPGLVKASQTLSLTCAVSGGSISSGDYYWTWIRSHPGKGLEWIAYIYYNGRTYYNPSLKSRLTISIDRSKNEFSLKVRSVTAADSAAYYCARGRLGFCAAGSCFLDSLDFWGQGTLVTVSS
VL: B3 VL with Y7S, T18R, A19V, R31N, T74I, A80S, S87F, H92Y
no binding (tested: 200 µg/mL): [1] | [2] | [3] | [4]

B5: COV77-76 (antibody, V domains shown)
VH: QVQLQESGPGLVKPSETLSLTCTVSGGSISSFYWSWIRQPPGKRLEWIGYIYYRGSTNYNPSLKSRVTMSVDTSKNQFSLKLSSVTAADTAVYYCARELPNNWLDPWGQGTLVTVSS
VL: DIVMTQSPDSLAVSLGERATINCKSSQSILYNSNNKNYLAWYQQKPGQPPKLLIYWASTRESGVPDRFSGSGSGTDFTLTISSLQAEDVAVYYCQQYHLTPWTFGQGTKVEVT
no binding (tested: 200 µg/mL): [1] | [2] | [3] | [4]

B6: COV77-43 (antibody, V domains shown)
VH: QVQLVESGGGVVQPGRSLRLSCSASGFTFSDYGMNWVRQAPGKGLEWVAMIWYDGSNYFYRDSVKGRFAISRDNSKNMVFLQMDNLRAEDTAVYFCARGTHFWSGLSLDAFDMWGQGTVVTVSS
VL: EIVMTQSPLSLPVTPGEPASISCRSSRSLLHYNGHNYLDWYLQKPGQSPQLLIYLGSNRAPGVPDRFSGSGSGTDFTLKISRVEAEDVGVYYCMQALQLNLITFGQGTRLEIK
no binding (tested: 200 µg/mL): [1] | [2] | [3] | [4]

B7: COV57-45 (antibody, V domains shown)
VH: QVQLVQSGTEVKKPGSSVKVSCRASGGTLSSYSVSWVRQAPGQGLEWMGRIIPILDKKTYAQKYQGRVTILADTSTSTVYMELSSLKSDDSAVYFCTTFDYDTSGQRDQHDYWGQGTPVTVSS
VL: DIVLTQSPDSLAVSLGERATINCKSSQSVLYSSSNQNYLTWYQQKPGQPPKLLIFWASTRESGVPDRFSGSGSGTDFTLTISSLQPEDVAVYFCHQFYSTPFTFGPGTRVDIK
no binding (tested: 200 µg/mL): [1] | [2] | [3] | [4]

B8: COV93-60 (antibody, V domains shown)
VH: QVQLQESGPGLVKPSETLFLTCAVSGGSINSSYWSWIRQPPGKGLEWIGYIYYRGSTNYNPSLKSRVTISVDTSKNQFSLKLNSVTAADTAIYYCARENLWNWFDPWGQGILVTVSS
VL: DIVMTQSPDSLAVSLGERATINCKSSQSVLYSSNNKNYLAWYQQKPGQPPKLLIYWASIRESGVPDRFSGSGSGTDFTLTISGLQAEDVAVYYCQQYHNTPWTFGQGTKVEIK
no binding (tested: 200 µg/mL): [1] | [2] | [3] | [4]

B9: COV93-61 (antibody, V domains shown)
VH: EVQLVQSGAEVKKPGESLKISCKGSGYSFTTFWIGWVRQMPGKGLEWVGVIYPDDSDTRYSPSFQGQVTMSADKSINTAYLQWSSLKASDTAVYYCARRNCDAALCYLGTYDYWGQGTVVTVSS
VL: QSALTQPPSASGSPGQSVTISCTGTISDVGRYDFVSWYQHHPGKAPKLIIYEVTKRPSGVPDRFSGSKSGNTASLTVSGLQAEDEADYYCNSYAGHNNFVIFGGGTKLTVL
no binding (tested: 200 µg/mL): [1] | [2] | [3] | [4]

B10: COV77-46 (antibody, V domains shown)
VH: QVQLQESGPGLVKPSQPLSLTCAVSGDSISSGGNYWSWIRQHPGKGLECIAYFYYTGRTYYNPSLKSRVTISLDTSKNQFSLKVSSVTAADTAVYFCARGRLGHCGGGSCFLDPLDYWGQGSLVTVSS
VL: EIVMTQSPATLSVSPGERATLSCRASERISSNLAWSQHKVGQAPRLLIYGASTRATGIPARFSGSGSGTEFTLTISSLQSEDFAVYYCHQYHNWLLTFGGGTKVEIK
no binding (tested: 200 µg/mL): [1] | [2] | [3] | [4]
